Measured values reported in the supplement of paper PMC9170038.

Tested on: MS2 coat protein
Assay: apparent KD of MS2 coat protein; designed switch direction (-1 OFF switch, 1 ON switch): -1; higher = weaker reporter binding
Method in brief: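 Apparent KD, taken as the median over clusters for each design, was obtained by curve-fitting normalised cluster fluorescence. Designed RNA switches had been transcribed on Illumina chips by stalled E. coli RNA polymerase and titrated with SNAP-549-labelled MS2 coat protein, doubling from 0.7 or 1.5 nM to 3 µM.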

[1] = Eterna round: R95, input ligand: FMN 200 uM
[2] = Eterna round: R95, input ligand: microRNA oligo, concentration not stated
[3] = Eterna round: R95, input ligand: none
[4] = input ligand: microRNA oligo, concentration not stated

Sequence | apparent KD of MS2 coat protein (input ligand: FMN 200 uM) [nM] | apparent KD of MS2 coat protein (input ligand: none) [nM] | apparent KD of MS2 coat protein [1] [nM] | apparent KD of MS2 coat protein [2] [nM] | apparent KD of MS2 coat protein [3] [nM] | apparent KD of MS2 coat protein [4] [nM]
GUAGAGUCAGGAUAUACGAGAUCGAAAGAUCAGCGAUCCUUACAUGAGGAUCACCCAUGUAGAAGGGACUCUAC [Omei mod 11 to Eli's favorate candidate (ch.parushev)] (Eterna round: R97, puzzle: Exclusion 2) | 254 | 24.3 |  |  |  | 
GUAGAGUCAGGAUAUACGAGAUCGAAAGAUCAGUGGUCCUUACAUGAGGAUCACCCAUGUAGAAGGGACUCUAC [Omei mod 12 to Eli's favorate candidate (ch.parushev)] (Eterna round: R97, puzzle: Exclusion 2) | 39.6 | 790 |  |  |  | 
GUAGAGUGAGGAUAUACGAGAUCGAAAGAUCGGCGAUCCAUACAUGAGGAUCACCCAUGUAGAAGGCACUCUAC [Eli x2 4.002] (Eterna round: R97, puzzle: Exclusion 2) | 521 | 26.3 |  |  |  | 
GUAGUGUUAGGAUAUCUGCCUCCGAGGUAUUCCAUGAAUAGAGAGAAGGGACAUGAGGAUCACCCAUGUGGGUA [Eternabot (L2) Solution 92] (Eterna round: R97, puzzle: Exclusion 4) | 90.5 | 295 |  |  |  | 
GUAGUUCGAGUUAGGAUAUGAUUAAAAUUCGGAUAUCAGAAGGAACUUGAGGAUCACCCAAGUAUAGAUGAUUC [JR_BMEx4_Sub058] (Eterna round: R97, puzzle: Brourd's mod of Exclusion 4) | 91.6 | 38.1 |  |  |  | 
GUAUAACAUGAGGAUCACCCAUGUGAGGAUAUGCGAAUUUCAUCAAAAGAUGAAAUUUGCAGAAGGCACAGUAC [Omei Ex1 A12] (Eterna round: R97, puzzle: Exclusion 1) | 93 | 66.3 |  |  |  | 
GUAUAACUACACGGGCUCAACAUGAGGAUCACCCAUGUCACAUACGCAAGCUUUUUGCUUGUCUUAUCUGUCCGUGA [Quleorraa] (puzzle: Sensor v3, turn-off variant 1) |  |  | 12.3 | 11.9 | 10.7 | 
GUAUAGCGAGGAUAUACAUGAGGAUCACCCAUGUGAUCCUUAGGCUGUACAAGCCAAUGUAGAAGGCGCAAAUU [jl-ex3.4.59 ViennaUCT mod] (Eterna round: R97, puzzle: Exclusion 3) | 75.7 | 147 |  |  |  | 
GUCAACGCAGGAUAUUAGAACUUUUACAUGAGGAUCACCCAUGUUAAUUGGGUCUAAGAAUAAGAAGGGCGAUGAA [JR_Ex5_Sub011] (Eterna round: R97, puzzle: Exclusion 5) | 15.8 | 14 |  |  |  | 
GUCACAUGGACAUAGGAUCACAUGAGGAUCACCCAUGUGACUAACAAGCUUUUUGUUCGUCUUAUGUCUAUGUGAAU [Stov1/16-B2] (Eterna round: R97, puzzle: Sensor, turn-off variant 1) | 13.2 | 12.3 |  |  |  | 
GUCAGCUCGUCAGGAUAUACAUGCGUGCUUCGGCACGUAUGAUAGAUCACAUGAGGAUCACCCAUGUAGAAGGGACGAGCUGAC [ENG2/4-B1] (Eterna round: R96, puzzle: Exclusion NG 2) | 13.2 | 12.5 |  |  |  | 9.92
GUCAGCUCGUCAGGAUAUAUUAACAUGAGGAUCACCCAUGUAAGAUCAGGCUUCGGCCAAUGUUAAUAGAAGGGACGAGCUGAC [ENG2/12-B1] (Eterna round: R96, puzzle: Exclusion NG 2) | 132 | 438 |  |  |  | 745
GUCAGCUCGUCAGGAUAUGAACAUGAGGAUCACCCAUGUAAGAUCAAGCUGCUUCGGCAGCAAGUUCAGAAGGGACGAGCUGAU [ENG2/10-B2] (Eterna round: R96, puzzle: Exclusion NG 2) | 167 | 104 |  |  |  | 136
GUCAGCUCGUGAGGAUAUACAUGCGUGCUUCGGCACGAAUUUAAGAUCACAUGAGGAUCACCCAUGUAGAAGGCACGAGCUGAC [ENG2/3-A1] (Eterna round: R96, puzzle: Exclusion NG 2) | 137 | 591 |  |  |  | 472
GUCAGCUCGUGAGGAUAUACAUGCGUGCUUCGGCACGUAUGAUAGAUCACAUGAGGAUCACCCAUGUAGAAGGCACGAGCUGAC [ENG2/4-A1] (Eterna round: R96, puzzle: Exclusion NG 2) | 18.8 | 12.9 |  |  |  | 11.1
GUCAGCUCGUGAGGAUAUAUAUACAUGAGGAUCACCCAUGUAAGAUCAGGCUUCGGCCAAUGUAUAUAGAAGGCACGAGCUGAU [ENG2/11-A2] (Eterna round: R96, puzzle: Exclusion NG 2) | 847 | 1120 |  |  |  | 695
GUCAGGAAUGUAGGAUAUCUGCACGAUUAGUGCAGAGAAGGACAUGAGGAUCACCCAUGUAUAGUAGCUUCGGCUACACCUGAC [ENG1-A1] (Eterna round: R96, puzzle: Exclusion NG 1) | 16.7 | 19.5 |  |  |  | 14

Sequence | apparent KD of MS2 coat protein (input ligand: FMN 200 uM) [nM] | apparent KD of MS2 coat protein (input ligand: none) [nM] | apparent KD of MS2 coat protein [1] [nM] | apparent KD of MS2 coat protein [2] [nM] | apparent KD of MS2 coat protein [3] [nM] | apparent KD of MS2 coat protein [4] [nM]
GUCAUCACACAUGGGAUCAACAUGAGGAUCACCCAUGUUGCCAAGUUGUUUGCACGUCUUAUCAUACGUUUUUCGAU [Mod-Jxi] (Eterna round: R97, puzzle: Sensor, turn-off variant 1) | 22.2 | 22.7 |  |  |  | 
GUCCAGGCAGGAUAUGUACAGGAGCACUUGAGGAUCACCCAAGUCCUCGUGUUGUUGUCAGCAGAAGGGCCCAUUA [Dizaquin] (Eterna round: R97, puzzle: Exclusion 5) | 529 | 187 |  |  |  | 
GUCCUACAUGAGGAUCACCCAUGUAAGGAUAUGCUAGCGGUCGGCUGACUGACUGCUAGCAGAAGGUACAUGAU (puzzle: Exclusion 1) |  |  |  | 15.6 |  | 
GUCCUCAUGACGCCUAAACACAUGAGGAUCACCCAUGUACAGGCUUUUUGUCGUCUUAUAAUAAAACCGAGGAUGCG [Xelaanen] (puzzle: Sensor v3, turn-off variant 1) |  |  | 24.4 | 319 | 29.8 | 
GUCCUGCAGCUUUGCUGUAGGCGUACAUGAGGAUCACCCAUGUAGGAUAUGGUAGGCUUUGCUUACUAGAAGGAUAGAGUGAUC [JL EXNG3 1.28] (Eterna round: R96, puzzle: Exclusion NG 3) | 43.1 | 38.4 |  |  |  | 7.08
GUCCUGGACUAUCACAAGCACAUGAGGAUCACCCAUGUCAUGGGUAGAUCCCUAAAUAAAGAUACUGCUCGUCUUAU [Cac sensor turnoff var1 sub6] (Eterna round: R97, puzzle: Sensor, turn-off variant 1) | 160 | 300 |  |  |  | 
GUCCUGGACUAUCACAAGCACAUGAGGAUCACCCAUGUCAUGGGUGGGUCACUAAGUACGGCUACUGCUCGUCUUAU [Cac Sensor turn off var1 sub8] (Eterna round: R97, puzzle: Sensor, turn-off variant 1) | 436 | 495 |  |  |  | 
GUCGAGUGAGGAUAUGGUGAGUAGUGCCAGAGCGCUGCUCACCAGAAGGCACAUGAGGAUCACCCAUGUAUGUC [Mat - Exclusion 4 - Mod of JL - D10] (puzzle: Exclusion 4) |  |  |  | 12.3 |  | 
GUCGUGCAGCUUUGCUGUACGAGUACAUGAGGAUCACCCAUGUAGGAUAUGGUACGCUUUGCGUGCCAGAAGGACGUGCGUUAG [salish99_ExNG3_r04_001] (Eterna round: R96, puzzle: Exclusion NG 3) | 53.3 | 39.3 |  |  |  | 35.2
GUCGUGUUAGGAUAUAACAACUACUAAUAAAUUAGUAGUUGUUAGAAGGAACAUGAGGAUCACCCAUGUAUGAC [-23.4, -22.9 kcal, A 36%] (Eterna round: R97, puzzle: Exclusion 4) | 192 | 43.1 |  |  |  | 
GUCGUGUUAGGAUAUGGCAACGGCUAGUAAACUAGUUGUUGUUAGAAGGAACAUGAGGAUCACCCAUGUAUGAC [-24.6, -24.1 kcal, A 30%] (Eterna round: R97, puzzle: Exclusion 4) | 98.1 | 34.4 |  |  |  | 
GUCUAGAGAGGAUAUAUUUACAGUGUACGUCGGAUGAUUGCACUUGAGGAUCACCCAAGUAGAAGGCUCGAGGG [EX2 #32] (Eterna round: R97, puzzle: Exclusion 2) | 457 | 303 |  |  |  | 
GUCUGAGCAGGAUAUACAUGAGGAUCACCCAUGUUGGUUCAGCGACGAUAGUCGCAAUGUAGAAGGGCUCAGAC [E3/9-D1] (Eterna round: R97, puzzle: Exclusion 3) | 73.5 | 258 |  |  |  | 
GUCUUCAUGACAUGAGGAUCACCCAUGUGUUAUAUGUUAACUAAGGAUAUAUUUUUAAUGUUGAGAUAGAAGGUAGUUUCGGUC [JR_ExcNG3_Sub091] (Eterna round: R96, puzzle: Exclusion NG 3) | 120 | 131 |  |  |  | 95.8
GUCUUCAUGACAUGAGGAUCACCCAUGUGUUAUAUUUUUACUAAGGAUAUAUUUUUAAUGUUGAGAUAGAAGGUAGUUUCGGUC [JR_ExcNG3_Sub092] (Eterna round: R96, puzzle: Exclusion NG 3) |  |  |  |  |  | 79.1
GUCUUGAUAGGAUAUACAUGAGGAUCACCCAUGUCCCACCCGUUACCUCUGACCCUAUGUAGAAGGAUCGUUUG [Exy#17] (Eterna round: R97, puzzle: Exclusion 3) | 34.3 | 48.3 |  |  |  | 
